Laboratory results as given in the supplement of paper PMC12042874.
± gives the uncertainty stated by the source.

Test: amyloid nucleation score (Sup35N fusion, yeast selection) (log enrichment); library NNK3; higher = more nucleation; inactive = no reads after selection
Outline: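 Peptides of 20 random codons fused to Sup35N were expressed in psi-negative yeast, induced 24 hours with 100 μM copper sulfate, then grown 7 days at 30°C on medium lacking adenine and uracil. Input and output plasmid inserts were Illumina-sequenced. Nucleation score is the DiMSum log enrichment of output over input reads, centred on the mode score of non-aggregating sequences, excluding sequences with under 100 input reads. Random libraries had three technical output replicates.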

Substance	amyloid nucleation score
HITLKSYARIV	inactive
HITLRYLNL	0.692 ± 0.12
HIVSRP	inactive
HKDMVNASLPGITSARWLGR	inactive
HKEVMKNLCIFYPTDEMYRV	inactive
HKFFAYDGGDRKRGIFGGWL	1.25 ± 0.1
HKLYEWACSRSTALNYIGQI	inactive
HKMRRSLQFNEMGLFSPKVY	inactive
HKRTTNIPFRFSNLC	inactive
HKTLFIFS	inactive
HKWSAAIEIGSVKDNRIKLL	inactive
HKYLWCIPWETLCKTWPFFS	inactive
HLCAVHKQFFYGSTGGVYTR	inactive
HLCDFPLEVKTLFFLL	0.508 ± 0.17
HLCRFYSSFGDSTSSRLSGN	inactive
HLGDGTA	inactive
HLGFF	inactive
HLGKRNEKNTVLARLNFGQ	inactive
HLGVGG	inactive
HLMFCNHMALCVFFLQQEF	2.21 ± 0.074
HLNGVALFNW	0.917 ± 0.11
HLRWMTEKGPVRNVCVRGCH	inactive
HLTIVDWSPRESSSWIMRFT	inactive

Substance	amyloid nucleation score
HLVCYLWE	1.71 ± 0.093
HMCCKYVPRNKSGSLVFKRG	inactive
HMCIG	inactive
HMNDASPGTAKFEIV	inactive
HMPDFVCLFNHVMPWIWIRV	inactive
HNASGCWWDSALPITFRRLG	inactive
HNASKRMDICKASSVYKWRI	inactive
HNNTIVASWRHDNRACA	inactive
HNNYHYIVRSFVGI	1.01 ± 0.28
HNQTDSASVIWFSYVWAFVG	inactive
HNRKYYTI	inactive
HPGFTWY	inactive
HPVGACCLQLRFGLYCICVA	0.023 ± 0.26
HQKALTAVMWFNNRRGGLFG	inactive
HRDNLWRWNFFCPNY	0.993 ± 0.12
HRKKYFLSPIVGPRTPRLCT	inactive
HRPRLGI	inactive
HRRIPL	inactive
HRTCITTNDDCLSRGTLP	inactive
HRTLVMGP	inactive
HRYASVGSTYWGYKVDLLWC	inactive
HSDILRFCLMVNKDTVHSVL	inactive
HSEADDSLTGYFALVATRVF	inactive

Substance	amyloid nucleation score
HSITNITCSFDLAFLRMHVL	0.871 ± 0.11
HSSMIIRLWLDVVVQIRGQ	0.575 ± 0.28
HSSVSMGLVGGSTE	inactive
HSVASDYRTAFLLSHT	1.39 ± 0.089
HSVFFY	inactive
HSVFISLGMFRPVTSYL	inactive
HSYFDFYSYDSYNVRHRSVK	inactive
HTLLHEF	inactive
HTRLAPWSMDEGRAV	inactive
HVIHGCNSIFYSVS	inactive
HVLLDPEIITA	inactive
HVMTHFG	inactive
HVSAARMFSSYDPRKPGENM	inactive
HVVFLSSMVATTLLWFG	1.26 ± 0.12
HVVVKK	inactive
HWAVRH	0.212 ± 0.42
HWKLHALGRWAGQGFTR	inactive
HWLTSSVKSLTPRSGQKGLD	inactive
HWSRFQYGLVFRNFIVQNLD	inactive
HWVLQYRCSARKRSHLRYSM	inactive
HWVWIGVCLYNDRRGTGICV	1.15 ± 0.16
